# B1: Inositol phosphate phosphatase SopB (Salmonella typhimurium), O30916 (parent)
# chain: MQIQSFYHSASLKTQEAFKSLQKTLYNGMQILSGQGKAPAKAPDARPEIIVLREPGATWGNYLQHQKASNHSLHNLYNLQRDLLTVAATVLGKQDPVLTSMANQMELAKVKADRPATKQEEAAAKALKKNLIELIAARTQQQDGLPAKEAHRFAAVAFRDAQVKQLNNQPWQTIKNTLTHNGHHYTNTQLPAAEMKIGAKDIFPSAYEGKGVCSWDTKNIHHANNLWMSTVSVHEDGKDKTLFCGIRHGVLSPYHEKDPLLRHVGAENKAKEVLTAALFSKPELLNKALAGEAVSLKLVSVGLLTASNIFGKEGTMVEDQMRAWQSLTQPGKMIHLKIRNKDGDLQTVKIKPDVAAFNVGVNELALKLGFGLKASDSYNAEALHQLLGNDLRPEARPGGWVGEWLAQYPDNYEVVNTLARQIKDIWKNNQHHKDGGEPYKLAQRLAMLAHEIDAVPAWNCKSGKDRTGMMDSEIKREIISLHQTHMLSAPGSLPDSGGQKIFQKVLLNSGNLEIQKQNTGGAGNKVMKNLSPEVLNLSYQKRVGDENIWQSVKGISSLITS
# Variants of: B1
# Conditions: with cdc42_human CDC42, P60953
# Chain of cdc42_human CDC42, P60953 (P60953 whole entry, looked up): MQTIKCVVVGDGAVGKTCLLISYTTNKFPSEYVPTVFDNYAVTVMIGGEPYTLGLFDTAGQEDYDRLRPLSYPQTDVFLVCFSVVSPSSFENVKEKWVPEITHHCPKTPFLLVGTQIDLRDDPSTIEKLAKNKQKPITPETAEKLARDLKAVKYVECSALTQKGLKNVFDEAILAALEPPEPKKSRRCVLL
row,Variant,effect of a mutation on the interaction
1,L84P;R466A,decreasing interaction
2,L52P,decreasing interaction
3,L63P;R466A,decreasing interaction
4,L76P;R466A,decreasing interaction
5,L73P;R466A,decreasing interaction

# Variants of: B1
# Conditions: with cdc42_human CDC42, P60953
# Remark: another data set of the same source
row,Variant,effect of a mutation on the interaction
1,L84P,decreasing interaction
2,L76P,decreasing interaction
3,L63P,decreasing interaction
4,L73P,decreasing interaction

# From IntAct's records for PubMed 21435037
